# Experimental data as given in the RNAGym collection of RNA variant scans (doi:10.7554/elife.80360).
# B1: Hairpin Ribozyme (parent)
# chain: GUCCUCUUUCACGUGCGCGUGAAAGAGAGAAGUGAACCAGAGAAACACACGUUGUGGUAUAUUACCUGGUA
# Variants of: B1
# Test: self-cleavage, relative activity (ratio to wild type); higher = more cleavage; co-transcriptional
row,Variant,self-cleavage
1,A26G A35U,0.523
2,A26G A35C,0.799
3,A26G A35G,0.763
4,A26U C50A,0.209
5,A26U C50G,0.148
6,A26U U58C,0.657
7,A26G A30C,0.0939
8,A26G A30G,0.0496
9,A26U G29A,0.198
10,A26U U62A,0.214
11,A26U U62C,0.192
12,A26C A49C,0.218
13,A26C U55C,0.211
14,G25U G56U,0.223
15,G25U G56C,0.17
16,G25U G56A,0.21
17,G27A A35U,0.261
18,G27A A35G,0.449
19,A26U G56U,0.279
20,A26U G56A,0.129
21,A26G G34A,1.19
22,A26G G34U,1.37
23,A26U C46U,0.11
24,A26C U67G,0.196

row,Variant,self-cleavage
1,G27A A30U,0.0812
2,A26C A28U,0.291
3,A26U G68A,0.23
4,A26U G32A,0.154
5,A26U G32C,0.128
6,A26C G68A,0.117
7,A26C G42C,0.357
8,A26G A47C,0.251
9,A26G A47U,0.152
10,A26C U53G,0.883
11,A26C U33C,0.143
12,A26C U33A,0.23
13,A26C A35U,0.495
14,A26C A35G,0.529
15,A26G A36G,0.769
16,A26C A44C,0.0715
17,A26C A44G,0.124
18,A26U G42U,0.173
19,A26U G42C,0.139
20,A26U G27U,0.0812
21,A26G A61U,0.281
22,G27A A45U,0.201
23,G25U G57U,0.179
24,A26U A59U,0.108

row,Variant,self-cleavage
1,G25U U52A,0.55
2,A26G A71G,0.935
3,A26G A71U,0.823
4,A26U U70A,0.575
5,A26U U70G,0.397
6,G27A A36U,0.198
7,G25U G69A,0.261
8,A26U A47C,0.151
9,A26U U33G,0.107
10,A26C G27C,0.197
11,A26C G27U,0.0629
12,A26U A31C,0.171
13,A26U A49C,0.157
14,A26U G34U,1.37
15,A26G U53A,0.814
16,A26G U53C,0.565
17,A26C C38G,0.182
18,A26C C38U,0.416
19,A26C C38A,0.163
20,A26G C65G,0.23
21,A26G C65U,0.311
22,A26C G69U,0.108
23,A26C G69C,0.212
24,G25U G54A,0.496

row,Variant,self-cleavage
1,A26G U62A,0.228
2,A26G U62G,0.0228
3,A26G U62C,0.277
4,A26U A30C,0.205
5,G27A A44G,0.0958
6,A26C G40C,0.11
7,A26C G40U,0.114
8,A26U U67G,0.2
9,A26G C50U,0.347
10,G25U U55C,0.205
11,A26G A45U,0.148
12,A26G U60C,0.963
13,A26G U60A,0.763
14,G25U U58A,0.447
15,G25U U58C,0.503
16,A26G A39G,0.379
17,A26G G32U,0.121
18,A26G G32C,0.144
19,A26C A39C,0.47
20,A26C A39U,0.303
21,A26U C65G,0.111
22,A26U A28G,1
23,G25U G68A,0.183
24,A26C G54C,0.243

row,Variant,self-cleavage
1,A26G U58C,1.02
2,A26C A36C,0.488
3,A26G G42U,0.371
4,A26G G42A,0.245
5,A26G G42C,0.357
6,G27A A43C,0.0674
7,A26C G56A,0.163
8,A26C G56C,0.0943
9,G27A A41C,0.602
10,G27A A41G,0.261
11,G27A A41U,0.744
12,A26G G40C,0.167
13,A26G G40A,0.302
14,G27A A59U,0.185
15,G27A A59C,0.103
16,G27A A59G,0.191
17,A26C C50G,0.174
18,A26C C46A,0.175
19,A26C G57C,0.0672
20,A26C G32C,0.175
21,A26C G32A,0.0538
22,A26C G34A,0.906
23,A26U G69C,0.247
24,A26G A43C,0.11

row,Variant,self-cleavage
1,A26G A43G,0.114
2,A26U A61C,0.226
3,A26U A61G,0.187
4,A26U U55A,0.082
5,A26G A44U,0.103
6,A26U G54A,0.318
7,A26G C48U,0.18
8,A26G C48G,0.14
9,A26C G51C,0.714
10,A26C G51U,0.919
11,A26C A59C,0.0674
12,A26G G54C,0.457
13,A26G C37U,0.602
14,A26G C37G,0.237
15,A26U U53C,0.599
16,A26C A71U,0.567
17,A26C A47U,0.0646
18,A26C A47G,0.187
19,A26U A64U,0.175
20,A26U A36G,0.723
21,A26C A30C,0.25
22,A26C U63A,0.175
23,A26U U52C,0.656
24,A26C C48G,0.138

row,Variant,self-cleavage
1,A26U A71U,0.433
2,A26U C48U,0.0687
3,A26G G56A,0.271
4,A26U A45C,0.223
5,G25U U62G,0.237
6,G25U U62A,0.114
7,A26U A43C,0.098
8,A26U U60G,0.437
9,A26U U60C,0.898
10,A26C U52C,0.811
11,A26G A31G,0.884
12,A26C U62G,0.0946
13,G27A A47U,0.111
14,A26C U70A,0.63
15,G25U U63A,0.184
16,A26G G29U,0.0885
17,A26G U67G,0.281
18,A26U U63G,0.158
19,A26G G57A,0.196
20,A26G G57C,0.103
21,A26G G68U,0.131
22,A26G G69C,0.403
23,A26G G69U,0.204
